Reference: publication PMC3440371, “Non-Covalent Interaction between Polyubiquitin and GTP Cyclohydrolase 1 Dictates Its Degradation” (PLoS ONE, 2012)

Biological target: T1, polyubiquitin chains, endogenous in HEK293 cells (human (endogenous in HEK293), UniProt P0CG48 1-76)
T1 construct: ubiquitin (76 amino acids), cut product of the polyubiquitin precursor, joined into endogenous polyubiquitin chains; Precipitated or detected with a polyclonal ubiquitin antibody; seen as smeared bands; source: endogenous, HEK293 lysate
Assay: co-IP; lysates of HEK293 cells transfected with FLAG-GCH1 or mutants for 2 days, immunoprecipitated with the ubiquitin antibody and protein A/G beads; blot with FLAG antibody; empty vector as control
Conditions: partners not purified

fold change of ubiquitin binding against wild-type FLAG-GTPCH1: ~4.5 fold
B1: FLAG-GTPCH1 I131L (natural protein, human, UniProt P30793 1-250, looked up)
chain: MEKGPVRAPAEKPRGARCSNGFPERDPPRPGPSRPAEKPPRPEAKSAQPADGWKGERPRSEEDNELNLPNLAAAYSSILSSLGENPQRQGLLKTPWRAASAMQFFTKGYQETISDVLNDAIFDEDHDEMVLVKDIDMFSMCEHHLVPFVGKVHIGYLPNKQVLGLSKLARIVEIYSRRLQVQERLTKQIAVAITEALRPAGVGVVVEATHMCMVMRGVQKMNSKTVTSTMLGVFREDPKTREEFLTLIRS
notes: GTP cyclohydrolase 1 (GTPCH1), human, full-length GCH1 cDNA with the point mutation I131L; also called FLAG-GCH1 I131L; source: HEK293, transfected (pCI-neo), in lysate; not shown: FLAG, C-terminal, kept
